Data taken from the DeepSol protein solubility set.

Experiment: soluble on expression in E. coli; label from the status in PepcDB or PDB records

Row | Sequence | soluble on expression in E. coli
1 | MPAILETNPIAIRACILYEVRQKRPIFESFKNFCNAFGNDFMEYREFERWFYRFYHGNEDLDYDMSREPKTASLSELPIEILFKIVENLNFLDRLLLRNVSPCFRSIAEDHVNEVTNISVTSIPNHVHVCFYHESDYTDIICKRVDDDCVITKMSQYEDSKDWKIEGVSHVTVALNYLSRVLKSPKLKLEKLRLDFLEHNKEDTQCMEELLTVLENSEPHVLNIEFEGLNFHETSSVLKNLKNVEEIQLSMYSIQELSGIEKLVELEQWKTAKTLDISSHEDIEMDIKDLLHFQSIDVRLKSFSVQDAVKVKETLELRTSDFRSGTFRVLNTDTRKIGKVFNPKYTDAANNTFNFKTKNSSFEITMCSKEIYVKRKL | not soluble
2 | GSQEVRRGDFVRNWQLVAAVPLFQKLGPAVLVEIVRALRARTVPAGAVICRIGEPGDRMFFVVEGSVSVATPNPVELGPGAFFGEMALISGEPRSATVSAATTVSLLSLHSADFQMLCSSSPEIAEIFRKTALERRGAAASA | soluble
3 | MKRQLILEDGTVLIGTGFGGEIEKSGEVVFTTGMTGYQETLSDPSYCGQIVTFTYPLIGNYGINRDDFESIHPSVNGLIVNEICDHPSNFRNEISLNDYLKERNIPGLAGIDTRKLTRKIRQYGTLRGRLCNMDADVEYIVSQLKATVFTDHVKRVSTKDPYPSPGRGHRVVLVDFGMKHGILRELNKRDCDVIVVPYNTTAEEILRLSPDGIMLSNGPGDPKDVPEAIEMLKDIIGKVPLFGICLGHQLFALASGANTSKLKFGHRGLNHPVKNIATGKVAITSQNHGYAVEEESVENTELEITHVALNDGTVEGLRHKKFPAFTVQYHPEASAGPEDANDLFEDFLTMIENFKKEGEELCQNA | not soluble
4 | MLSRICGNGIRLTRTRLQFQPSIVTFRDYSNPAPKRGFLNNLIDNVRDEMQKNKELQEHQQQLKARMQELNESDALKDARKKFEIVEKETLKSSEVVKQKIEELSDHMKKMVHEIQKTEAGKKMTEAGAEALKQARKAAEHVEKVAEKVGDTEVYKHVSTSMKTVKDEIDNIADVRMYSRPEALTKRTDGFDLEKERVVEANDSATDVTLHKDSKWYSGWKNFSESNTYYHKLLDWKIKYDESDNMAVRMMRGVTEKIGSVFSGQNEVSEVLTEIHKIDANFDKQEWLRFCETKIIPNILEAFIRFDLEVLQSWCHERAYTQLSTVVKEYQKMHFSTKDSRIIDINKVEMATGKMMEQGPVLIISFQVYMINVTKNADGKVVEGDPDNPKRINHIWVLCRDVEEYNPALAWKLLEVHMQETPLAL | not soluble
5 | MIDPREIAISSRLEKVRNVIPVVSGKGGVGKSLISTTLALLLREKGYKVGLLDLDFHGASDHVILGFEPKEFPEEDKGVVPPEVNGVKFMTIVYYTENKPTPLRGKEVSDALIELLTITRWDELDYLVIDMPPGLGDPFLDVLRFLKRGKFIVVATPSKLALNVVEKLIQLLKEENREILGIIENMKLDEEEDVKNLAKRHGINYLLGVPFYRDLEEKIGKVEELLKTPFADKLREVIKVLV | soluble
6 | MSLSETLTLSDAKSIIENQIEELAKRNKEPEWMTKIRYKALEEFMKAPLNDPVIDEETLLNFIAKPEIEGIPEKVESLDDLPPEMKDLLDRLGINEVEQKYIAGLAVQTDTGVIYNQFLQEWAKKGLIVLPTEEAVRRYPDIMKEHFLKLFKAGESKLTAYHIAIWNGGIFLYVKENLKVPFPLHLFFLIQESSLAQAPHITIIAEKNSEVHLIEGCTAPILVRHSLHLDMTEAYLHENAKVRLTVLQNWPEYVHTRPMTRAKVGRNAEFINTTVSLGAGKSNIANPKYWVGENGYVELNGVILGQKDWYIDLGGEMHLQGEGGRGINASKSVIMDESTVITRGKIVAEAKKTKGHISCDALLLSDKARMETYPGLVSLVDEAELSHEAAIGKIKEEELFYLMSRGLSEEKATQLIVKGFVEPMLKDIPIEFVVEIKKIIELAVSGGFEGHHHHHH | soluble
7 | MSLNDNNTILGFDVNLICDFFLNTERQGPGSPEVTLKALSFIDNLTNKSLIADLGCGTGGQTMILAQHVPGKITGIDFFPGFIERFNKNAEKLNLQNRVKGIVGSMDDLSFEKDSLDLIWSEGAIYNIGFERGLKEWRNYLKPGGYLAVSESVWFTDQRPAEIHDFWMSAYTEIDTVPNKVAQIQKAGYIPVATFILPENCWIEHYFAPQAKAEEIFRRKHAGSRIVEELITSNHHEAELYSKYKAYYGYAFFICKKGFSLREGHHHHHH | soluble
8 | MSSGDQNRGGVADKALQLVLEMKRNPDVLPPYNTELVRQCYQKIDELFQKNAAVVEKIRAGLPHDSTLLQPRLAAMCHIRRCMMAYVNERKNRIRSFRWKYGGALPASVRNALCDAEIQFFNEYSSTLARFQSNLGEGGVNLLLHSAPPKSLFVQVRALEDYGEFETSDGTQVQLSKDSLHSLPRQDCEMLIRQGVLELVH | not soluble
9 | MTTIDLNCDLGESFGAYKMGNDDEILPFVSSINVACGFHAGDPSIMRQTVEKALEHNVAIGAHPGFPDLIGFGRRNMNVSASEVYDYVLYQTGALDAFVKAAGGKMQHVKPHGALYNMAASNPEIADAIAKAIYHINPSLLLYGLANSEAFIQAAEKYKVTLVQEAFADRTYKQDGTLTSRTEENALIKDEDEAIKQVLQMVKEGYVNSVNGEKVAVQAQTICLHGDGEKAVQFAERIYRTFKLNGISICAPKLEHHHHHH | soluble
10 | MILERVEIVGFRGINRLSLMLEQNNVLIGENAWGKSSLLDALTLLLSPESDLYHFERDDFWFPPGDINGREHHLHIILTFRESLPGRHRVRRYRPLEACWTPCTDGYHRIFYRLEGESAEDGSVMTLRSFLDKDGHPIDVEDINDQARHLVRLMPVLRLRDARFMRRIRNGTVPNVPNVEVTARQLDFLARELSSHPQNLSDGQIRQGLSAMVQLLEHYFSEQGAGQARYRLMRRRASNEQRSWRYLDIINRMIDRPGGRSYRVILLGLFATLLQAKGTLRLDKDARPLLLIEDPETRLHPIMLSVAWHLLNLLPLQRIATTNSGELLSLTPVEHVCRLVRESSRVAAWRLGPSGLSTEDSRRISFHIRFNRPSSLFARCWLLVEGETETWVINELARQCGHHFDAEGIKVIEFAQSGLKPLVKFARRMGIEWHVLVDGDEAGKKYAATVRSLLNNDREAEREHLTALPALDMEHFMYRQGFSDVFHRVAQIPENVPMNLRKIISKAIHRSSKPDLAIEVAMEAGRRGVDSVPTLLKKMFSRVLWLARGRAD | not soluble
11 | AHHHHHHGSVEQDPYEIVIKQLERAAQYMEISEEALEFLKRPQRIVEVTIPVEMDDGSVKVFTGFRVQHNWARGPTKGGIRWHPEETLSTVKALAAWMTWKTAVMDLPYGGGKGGIIVDPKKLSDREKERLARGYIRAIYDVISPYEDIPAPDVYTNPQIMAWMMDEYETISRRKTPAFGIITGKPLSIGGSLGRIEATARGASYTIREAAKVLGWDTLKGKTIAIQGYGNAGYYLAKIMSEDFGMKVVAVSDSKGGIYNPDGLNADEVLKWKNEHGSVKDFPGATNITNEELLELEVDVLAPAAIEEVITKKNADNIKAKIVAEVANGPVTPEADEILFEKGILQIPDFLCNAGGVTVSYFEWVQNITGYYWTIEEVRERLDKKMTKAFYDVYNIAKEKNIHMRDAAYVVAVQRVYQAMLDRGWVKH | soluble
12 | MGSDKIHHHHHHMERLCEQVRKVRRWLIDQPFDGILLSEQKNIAWLTGARAYVNLATERSIVFFLITESETVMYCSNIEKERLLAEEIGDTVGEIHVFPWYDPLLAESITQEQSKIGKVVLDREVESAFKAVRSALSPSQVAGYRQLGKLSAAAVEETALGLQRGETELEIAGRLANAAIKRGIEPVVNLVAVDDRVSAYRHPLPTDKRLDRYVMIVLSGRRNGQYISLTRLVHFGVIPIDLKKKHAAVCTIDSRLMHHTRVGQSMGDLFKEMKAAYATVGYLHEWKNHHQGGLTGYVGRERLLQPDAQELIQANEVYAWNPSITGTKSEDTILVTESGPEILTLGKKFPLMTVTVAGCTYERPDILGRNDG | not soluble
13 | MGSSHHHHHHNYNIPTTENLYFQGHMNIGLLEALDQLEEEKGISKEEVIPILEKALVSAYRKNFGNSKNVEVVIDRNTGNIKVYQLLEVVEEVEDPATQISLEEAKKIDPLAEVGSIVKKELNVKNFGRIAAQTAKQVLIQRIRELEKEKQFEKYSELKGTVTTAEVIRVMGEWADIRIGKLETRLPKKEWIPGEEIKAGDLVKVYIIDVVKTTKGPKILVSRRVPEFVIGLMKLEIPEVENGIVEIKAIAREPGVRTKVAVASNDPNVDPIGACIGEGGSRIAAILKELKGEKLDVLKWSDDPKQLIANALAPATVIEVEILDKENKAARVLVPPTQLSLAIGKGGQNARLAAKLTGWKIDIKPIMNL | soluble
14 | MDCNGSGGSSDDDKPLHHDGGVRMKFFRSVGEVFGYSPFRSLAQHARMCGRAVGLLQQQFEALRRGNYEEVEELREEIDELEHHADQIKEEIRGNVTKSLMLPVDRHDLLEFLKVQDDILNNCEHVGHMVTFRKVSAPEDVWDEFLVLLSKLMEIVNNYEEMVERIMQLVETSFSKKEVNRALEYVPIIEQLEHECDLIQIGLHTKLFNLENSNPLDIQLMVTWVVHLGYVANAAARASDRFRIMILGR | soluble
15 | HRVGLYEKALPNHLSWEEKLACTKELGFDFLEISVDESDERRSRLDWDDATIYSLHRLCEEYGVPLQSMCLSAHRKFPFGSADPALRDEALKIMQKAITLAYKLGIRTIQLAGYDVYYEPANSATHQRFIEGMQHAARLAERAGVMLAVEIMDTPYLNALSKFEVLNRQIQSPFFTAYPDVGNISGWNYDLLTELSLSKPHITQIHLKDTYKVSEQYAGQFRDLVIGEGDVDFDELFCRLKALDCVVPLVIEMWAHDEQWQQHIHTAQRRLNQACDRAELP | not soluble
16 | SDFVITGGGIVGLATALRLQSLHPGARISVLEKEPAVARHQSGRNSGVIHAGVYYAPGSHKARFCARGVSSTRAFCDEHGIPYRICGKLIVATDAAELERMGTLETRARANGIVIERLSGEEARRLEPNIKAVGALLSPTTGIVDYGRVAERMAELFRDRGGEIRLDTEVTGGAESEAGVRLETTAGEISAGKAVFCGGLHADRLARAFGASLDFRIVPFRGEYFAIKNQPEDLVQHLIYPVPDPARPFLGVHLTRKMNGGFTVGPN | not soluble
17 | MGHHHHHHSHALPAGEWGTVQLRGSWRVGQTAGGSRNFASYPTNPCFPFSVPEGPGPRCVRITLHQHCRPSDTEFHPIGFHIFQVPEGGRSQDAPPLLLQEPLLSCVPHRYAQEVSRLCLLPAGTYKVVPSTYLPDTEGAFTVTIATRIDRPSIHSQEMLGQFLQEVSVMAVMKT | soluble
18 | MADLFPADFEPVFINIGDLELYNQDLDDEGTPTEAWTTFREEVKQVDGVMFVTPEYNRSVPAVLKNALDVGSRPYGESVWDKKPGLVVSVSPGAISGFGANHHLRQSLVFLNVPTLQQPEAYIGGITNLIGEDGKIIDGTVGFLQSIVDAYVDFFNRLTA | not soluble
19 | MEQVFAPWRIEWVERDDTTDDDVDCVFCAFPGREHARQHLVVARTDHAAVMLNNYPYNPGHCMVIPDVHTGDYGDLDADTLLDHARLKQATLDALDAALGPDAFNTGLNLGGGAAGGSIGDHLHTHVVPRWNGDTNFMPVISDTKVIVEALDDTYDRLHDAFLARPDATEAPTGAVFVDFNLEHHHHHH | not soluble
20 | MRVFVVGGTGFVGQEVVRLLLARGHTPLVLARRSRPLPEGAVLVEGDIAREVPDLEGVEAAIYLAGIIRERGQTFRAVHVEGVRNLLRAMERAGVGRLLHMSALGARPEAPSRYHRTKAEGEALVRQSGLSHAIFRPSLIFGPGDEFFGRVLRGLVCAPLPFVPLIGDGGFPFRPVYVGDVAEAFVGALERGLEGTYDLVGPKEYSFRELLQLVMEVLGRRKPFLSLPLWLMDRLVPLLSPLPISPLTLDQYLMLKEGNTAPFPEALKELLPAPQALEEVLPRYLRC | soluble
